Laboratory results as given in publication PMC9189065 (Cell, 2022).
Blank lines part the entries; values can stand above or below the binder they belong to.

Legend:
[1] = molecular target: zebrafish MBP-Metap1, full length (zebrafish, UniProt Q4QRK0 1-386); assay: pull-down
[2] = molecular target: mouse METAP1(1-79) (mouse, UniProt Q8BP48 1-79); assay: other fluorescence titration
[3] = molecular target: mouse METAP1(1-59) (mouse, UniProt Q8BP48 1-59); assay: other fluorescence titration

binding result [1]: binds
B1: zebrafish Zng1, full length, purified (natural protein)
chain: not shown

Kd [2]: ~100 nM | stoichiometry N [2]: 1 | Kd [3]: ~100 nM | stoichiometry N [3]: 1
Binder: Ac-MEDEDECPELVPIKEKPSG-NH2 [zebrafish Zng1 N-terminal peptide, synthetic]

Kd [2]: ~100 nM | stoichiometry N [2]: 1 | Kd [3]: ~100 nM | stoichiometry N [3]: 1
Binder: Ac-EEDPAEEDCPELVPIETTQSE-NH2 [human ZNG1 N-terminal peptide, synthetic]
